Reference: paper PMC2195798 (The Journal of Experimental Medicine, 2000)
Read-outs that look alike come from different tables or passages of the source.

Experiments:
[1] = molecular target: T1, CC chemokine receptor 8 (CCR8) (human, UniProt P51685 1-355); test: radioligand binding
[2] = molecular target: T1, CC chemokine receptor 8 (CCR8); test: radioligand binding; remark: listed apart in the source

T1 sequence (P51685 whole entry): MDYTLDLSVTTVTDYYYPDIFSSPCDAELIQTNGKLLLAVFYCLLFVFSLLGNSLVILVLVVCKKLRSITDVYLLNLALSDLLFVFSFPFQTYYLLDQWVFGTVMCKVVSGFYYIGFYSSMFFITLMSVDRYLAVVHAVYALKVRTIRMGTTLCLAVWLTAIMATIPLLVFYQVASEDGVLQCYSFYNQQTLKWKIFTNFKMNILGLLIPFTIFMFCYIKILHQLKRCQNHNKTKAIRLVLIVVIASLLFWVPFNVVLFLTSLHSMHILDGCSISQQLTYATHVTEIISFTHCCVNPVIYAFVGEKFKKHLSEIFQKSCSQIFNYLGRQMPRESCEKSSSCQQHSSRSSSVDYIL

B1: MC148 CC chemokine from molluscum contagiosum virus (MCV), processed secreted protein (ligand, molluscum contagiosum virus subtype 1, UniProt Q98314 1-104, looked up)
chain: LARRKCCLNPTNRPIPNPLLQDLSRVDYQAIGHDCGREAFRVTLQDGRQGCVSVGNKSLLDWLRGHKDLCPQIWSGCESL
In the case of B1, the IC50 [1] is reported as 0.47 nM and the IC50 [2] is reported as 0.27 nM.

B2: viral macrophage inflammatory protein (vMIP)-II encoded by human herpesvirus 8 (HHV8) (ligand, UniProt Q98157 21-94, looked up)
chain: GDTLGASWHRPDKCCLGYQKRPLPQVLLSSWYPTSQLCSKPGVIFLTKRGRQVCADKSKDWVKKLMQQLPVTAR
B2 showed an IC50 [1] of 27.8 nM.

B3: I-309 (ligand, human, UniProt P22362 24-96, looked up)
chain: KSMQVPFSRCCFSFAEQEIPLRAILCYRNTSSICSNEGLIFKLKRGKEACALDTVGWVQRHRKMLRHCPSKRK
B3 gave an IC50 [1] of 0.52 nM.
